Test results published in US20200207841A1 (MIT, published 2020).
Residue numbers refer to the chain shown, from its start. In names and notes the source's numbering stands. Read-outs that look alike come from different tables or passages of the source.

What was measured:
[1] = biological target: T1, DV2 (Dengue virus serotype 2, virus used in FRNT) (Dengue virus serotype 2 (DV2)); assay: cell-based or functional assay
[2] = biological target: T2, DV1 (Dengue virus serotype 1, virus used in FRNT) (Dengue virus serotype 1 (DV1)); assay: cell-based or functional assay
[3] = biological target: T3, DV3 (Dengue virus serotype 3, virus used in FRNT) (Dengue virus serotype 3 (DV3)); assay: cell-based or functional assay
EDIII-DV3 [4] = biological target: T4, EDIII-DV3 (Dengue virus serotype 3 (DV3), UniProt Q6YMS3 579-671); assay: competition ELISA
T4 construct: also called EDIII of DV3; EDIII-DVIII

EDIII-DV2 [5] = biological target: T5, EDIII-DV2 (Dengue virus serotype 2 (DV2), UniProt P14337 581-673); assay: competition ELISA
T5 construct: also called EDIII of DV2; EDIII-DVII

EDIII-DV1 [6] = biological target: T6, EDIII-DV1 (Dengue virus serotype 1 (DV1), UniProt P17763 581-673); assay: competition ELISA
T6 construct: also called EDIII of DV1; EDIII-DVI

EDIII-DV3 [7] = biological target: T4, EDIII-DV3; assay: SPR
EDIII-DV2 [8] = biological target: T5, EDIII-DV2; assay: SPR
EDIII-DV1 [9] = biological target: T6, EDIII-DV1; assay: SPR
EDIII-DV3 [10] = biological target: T4, EDIII-DV3; assay: SPR; remark: listed apart in the source
EDIII-DV2 [11] = biological target: T5, EDIII-DV2; assay: SPR; remark: listed apart in the source
EDIII-DV1 [12] = biological target: T6, EDIII-DV1; assay: SPR; remark: listed apart in the source
EDIII-DV3 [13] = biological target: T4, EDIII-DV3
EDIII-DV2 [14] = biological target: T5, EDIII-DV2
EDIII-DV1 [15] = biological target: T6, EDIII-DV1
EDIII-DV4 [16] = biological target: T7, EDIII-DV4 (Dengue virus serotype 4 (DV4), UniProt P09866 580-672); assay: scFv displayed on yeast (YSD), soluble tagged EDIII-DV4 titrated, read by FACS
T7 construct: also called EDIII of DV4; DV4 EDIII

EDIII-DV3 [17] = biological target: T4, EDIII-DV3; remark: listed apart in the source
EDIII-DV4 [18] = biological target: T7, EDIII-DV4
EDIII-DV3 [19] = biological target: T4, EDIII-DV3; assay: competition ELISA; affinity relative to 4E5A
EDIII-DV4 [20] = biological target: T7, EDIII-DV4; assay: competition ELISA; affinity relative to 4E5A
EDIII-DV1 [21] = biological target: T6, EDIII-DV1; assay: competition ELISA; affinity relative to 4E5A
EDIII-DV2 [22] = biological target: T5, EDIII-DV2; remark: listed apart in the source
EDIII-DV1 [23] = biological target: T6, EDIII-DV1; remark: listed apart in the source
EDIII-DV3 [24] = biological target: T4, EDIII-DV3; remark: listed apart in the source
EDIII-DV2 [25] = biological target: T5, EDIII-DV2; remark: listed apart in the source
EDIII-DV4 [26] = biological target: T7, EDIII-DV4; remark: listed apart in the source
EDIII-DV1 [27] = biological target: T6, EDIII-DV1; remark: listed apart in the source
[28] = biological target: T1, DV2 (Dengue virus serotype 2, virus …); assay: cell-based or functional assay; remark: listed apart in the source
[29] = biological target: T2, DV1 (Dengue virus serotype 1, virus …); assay: cell-based or functional assay; remark: listed apart in the source
[30] = biological target: T3, DV3 (Dengue virus serotype 3, virus …); assay: cell-based or functional assay; remark: listed apart in the source
[31] = biological target: DV4 (Dengue virus serotype 4, virus used in FRNT) (Dengue virus serotype 4 (DV4)); assay: cell-based or functional assay
EDIII-DV4 [32] = biological target: T7, EDIII-DV4; assay: calculated from KD, ΔG = RTln(KD) at 25° C.
EDIII-DV4 [33] = biological target: T7, EDIII-DV4; assay: calculated from KD, relative to 4E11 WT
EDIII-DV4 [34] = biological target: T7, EDIII-DV4; remark: listed apart in the source
EDIII-DV4 [35] = biological target: T7, EDIII-DV4; assay: competition ELISA

B1: 4E11 WT (antibody, V domains shown)
VH: VKLLEQSGAELVKPGASVRLSCTASGFNIKDTYMSWVKQRPEQGLEWIGRIDPANGDTKYDPKFQGKATITADTSSNTAYLHLSSLTSGDTAVYYCSRGWEGFAYWGQGTLVTVSA
VL: ELVMTQTPASLAVSLGQRATISCRASENVDRYGNSFMHWYQQKAGQPPKLLIYRASNLESGIPARFSGSGSRTDFTLTINPVEADDVATYFCQRSNEVPWTFGGGTKLEIKR
notes: also called wt 4E11; mAb 4E11
[1]
  IC50 (read off the curve): neutralisation, relative infectivity against [4E11]: ~0.03 µg/mL
[2]
  IC50 (read off the curve): neutralisation, relative infectivity against [4E11]: ~0.06 µg/mL
[3]
  IC50 (read off the curve): neutralisation, relative infectivity against [4E11]: ~0.5 µg/mL
EDIII-DV3 [4]
  Kd: 21.8 nM
EDIII-DV2 [5]
  Kd: 5.2 nM
EDIII-DV1 [6]
  Kd: 0.328 nM
EDIII-DV3 [7]
  Kd: 7.58 nM
EDIII-DV2 [8]
  Kd: 6.2 nM
EDIII-DV1 [9]
  Kd: 0.5 nM
EDIII-DV3 [10]
  koff: 0.0102 s⁻¹
  kon: 1.34e+06 M⁻¹ s⁻¹
EDIII-DV2 [11]
  kon: 1.98e+06 M⁻¹ s⁻¹
EDIII-DV1 [12]
  koff: 0.000551 s⁻¹
  kon: 1.11e+06 M⁻¹ s⁻¹
EDIII-DV3 [13]
  Kd: 21.8 nM
EDIII-DV2 [14]
  Kd: 5.2 nM
EDIII-DV1 [15]
  Kd: 0.328 nM

B2: VH_G27P single chain Fv on yeast (scFv, V domains shown)
VH: B1 VH with G26P, A54E
VL: B1 VL with R31K, N57E, E59Q, S60W
EDIII-DV4 [16]
  Kd: 53300 nM

B3: 4E5A single chain Fv on yeast (scFv, V domains shown)
VH: B1 VH with A54E
VL: B1 VL with R31K, N57E, E59Q, S60W
notes: also called 4E5A scFv
EDIII-DV4 [16]
  Kd: 650 nM

B4: VH_G27_del (antibody, V domains shown)
VH: VKLLEQSGAELVKPGASVRLSCTASFNIKDTYMSWVKQRPEQGLEWIGRIDPENGDTKYDPKFQGKATITADTSSNTAYLHLSSLTSGDTAVYYCSRGWEGFAYWGQGTLVTVSA
VL: B1 VL with R31K, N57E, E59Q, S60W
EDIII-DV3 [17]
  Kd: 2.39 nM
  koff: 0.0483 s⁻¹
  kon: 2.02e+07 M⁻¹ s⁻¹
EDIII-DV4 [18]
  Kd: 8.04 nM
  koff: 0.0188 s⁻¹
  kon: 2.34e+06 M⁻¹ s⁻¹
EDIII-DV3 [19]
  REL AFFINITY: 2.67
EDIII-DV4 [20]
  REL AFFINITY: 4.78
EDIII-DV1 [21]
  REL AFFINITY: > 1.23
EDIII-DV2 [22]
  Kd: 0.269 nM
  koff: 0.000563 s⁻¹
  kon: 2.09e+06 M⁻¹ s⁻¹
EDIII-DV1 [23]
  Kd: 0.31 nM
  koff: 0.000471 s⁻¹
  kon: 1.52e+06 M⁻¹ s⁻¹
EDIII-DV3 [24]
  Kd: 9.05 nM
EDIII-DV2 [25]
  Kd: < 0.3 nM
EDIII-DV4 [26]
  Kd: 26.4 nM
EDIII-DV1 [27]
  Kd: < 0.3 nM

B5: 4E5A (antibody, V domains shown)
VH: B1 VH with A54E
VL: B1 VL with R31K, N57E, E59Q, S60W
notes: also called 4E11-5A; E45A
[28]
  FRNT50 (focus reduction neutralization test): 0.028 µg/mL
[29]
  FRNT50 (focus reduction neutralization test): 0.19 µg/mL
[30]
  FRNT50 (focus reduction neutralization test): 0.77 µg/mL
[31]
  FRNT50 (focus reduction neutralization test): 4 µg/mL
EDIII-DV3 [17]
  Kd: 2.72 nM
EDIII-DV2 [22]
  Kd: 0.129 nM
EDIII-DV1 [23]
  Kd: 0.217 nM
EDIII-DV3 [24]
  Kd: 24.2 nM
EDIII-DV2 [25]
  Kd: < 0.3 nM
EDIII-DV1 [27]
  Kd: 0.368 nM

B6: 4E11 VH-A55E (antibody, V domains shown)
VH: B1 VH with A54E
VL: B1 VL
EDIII-DV4 [32]
  ΔG: -7.29 kcal/mol
EDIII-DV4 [33]
  ΔΔG (ΔGmutant - ΔGWT): -1.31 kcal/mol
EDIII-DV4 [34]
  Kd: 4440 nM
EDIII-DV4 [35]
  fold affinity enhancement relative to 4E11 WT: 9.2 fold

B7: 4E11 VL-E59Q (antibody, V domains shown)
VH: B1 VH
VL: B1 VL with E59Q
EDIII-DV4 [32]
  ΔG: -6.76 kcal/mol
EDIII-DV4 [33]
  ΔΔG (ΔGmutant - ΔGWT): -0.77 kcal/mol
EDIII-DV4 [34]
  Kd: 11000 nM

B8: VH_G27A single chain Fv on yeast (scFv, V domains shown)
VH: B1 VH with G26A, A54E
VL: B1 VL with R31K, N57E, E59Q, S60W
EDIII-DV4 [16]
  Kd: 185 nM

B9: 4E11 VL-N57E (antibody, V domains shown)
VH: B1 VH
VL: B1 VL with N57E
EDIII-DV4 [32]
  ΔG: -6.92 kcal/mol
EDIII-DV4 [33]
  ΔΔG (ΔGmutant - ΔGWT): -0.93 kcal/mol
EDIII-DV4 [34]
  Kd: 8410 nM
